Source: publication PMC4939597, “Mechanism for insulin-like peptide 5 distinguishing the homologous relaxin family peptide receptor 3 and 4” (Scientific Reports, 2016)
Blank lines part the entries; values can stand above or below the compound they belong to. No end group written: not given here.

Legend:
human RXFP4 [1] = molecular target: T1, human RXFP4 (Homo sapiens, UniProt Q8TDU9); assay: Receptor binding assay, competition with NanoLuc-conjugated R3/I5 tracer; conditions: for pIC50 RXFP4: HEK293T cells transiently overexpressing human RXFP4, 0.5 nM NanoLuc-conjugated R3/I5 tracer, 21 °C, 2 h, mean ± SE, n = 3, SEM
T1 construct: expressed in transfected cells; host or cells: HEK293T
T1 sequence (Q8TDU9 whole entry): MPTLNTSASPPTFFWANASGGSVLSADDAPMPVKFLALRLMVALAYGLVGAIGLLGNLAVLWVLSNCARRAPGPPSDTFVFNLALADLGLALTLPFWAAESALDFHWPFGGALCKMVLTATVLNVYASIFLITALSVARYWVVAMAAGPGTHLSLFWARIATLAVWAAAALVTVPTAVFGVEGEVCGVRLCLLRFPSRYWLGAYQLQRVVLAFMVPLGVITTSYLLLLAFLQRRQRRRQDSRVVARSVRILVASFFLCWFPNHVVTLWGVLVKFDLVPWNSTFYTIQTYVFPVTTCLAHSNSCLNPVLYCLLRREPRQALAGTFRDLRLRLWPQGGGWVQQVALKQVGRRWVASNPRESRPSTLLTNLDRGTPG
Protocol: (§1) Figure 3 Receptor binding activities of the mature INSL5 and R3/I5 mutants towards RXFP3 and RXFP4. A NanoLuc-conjugated R3/I5 peptide was used as tracer and HEK293T cells transiently overexpressing human RXFP3 or human RXFP4 were used as receptor source. The tracer concentration used in these assays was 0.5 nM. The nonspecific binding was obtained by competition with 1.0 μM of relaxin-3. The measured data were expressed as mean ± SE (n = 3) and fitted to sigmoidal curves using the software SigmaPlot 10.0.
(§2) The receptor binding assays of the mature INSL5 and R3/I5 mutants were carried out using a NanoLuc-conjugated R3/I5 peptide as tracer and the human embryonic kidney (HEK) 293T cells transiently overexpressing human RXFP3 or human RXFP4 as receptor source. Nonspecific binding was obtained by competition with 1.0 μM of human relaxin-3. Briefly, HEK293T cells were transiently transfected with the expression construct of human RXFP3 or human RXFP4. Next day, the transfected cells were trypsinised, seeded into a 96-well plate, and continuously cultured for 24–36 h to confluence. To start binding assay, the medium was removed and the binding solution (serum-free DMEM medium plus 1% bovine serum albumin) containing 0.5 nM of the NanoLuc-conjugated R3/I5 tracer and varied concentrations of competitor was added (100 μl/well). After incubation at 21 °C for 2 h, the binding solution was removed and the cells were washed twice by ice-cold phosphate-buffered saline (200 μl/well for each wash). Thereafter, the cells were lysed by lysis solution (100 μl/well, from Promega, Madison, WI, USA) and the cell lysate was transferred to a white opaque 96-well plate (50 μl/well). After mixing with the freshly diluted substrate (50 μl/well), bioluminescence was immediately measured on a SpectraMax M5 plate reader (Molecular Devices, Sunnyvale, CA, USA) using the luminescence mode. The measured bioluminescence data were expressed as mean ± SE (n = 3) and fitted to sigmoidal curves using the SigmaPlot10.0 software.

human RXFP3 = molecular target: T2, human RXFP3 (Homo sapiens, UniProt Q9NSD7); assay: as above; conditions: HEK293T cells transiently overexpressing human RXFP3; 0.5 nM NanoLuc-conjugated R3/I5 tracer; 21 °C, 2 h; mean ± SE, n = 3; SEM
T2 construct: expressed in transfected cells; host or cells: HEK293T
T2 sequence (Q9NSD7 1-469): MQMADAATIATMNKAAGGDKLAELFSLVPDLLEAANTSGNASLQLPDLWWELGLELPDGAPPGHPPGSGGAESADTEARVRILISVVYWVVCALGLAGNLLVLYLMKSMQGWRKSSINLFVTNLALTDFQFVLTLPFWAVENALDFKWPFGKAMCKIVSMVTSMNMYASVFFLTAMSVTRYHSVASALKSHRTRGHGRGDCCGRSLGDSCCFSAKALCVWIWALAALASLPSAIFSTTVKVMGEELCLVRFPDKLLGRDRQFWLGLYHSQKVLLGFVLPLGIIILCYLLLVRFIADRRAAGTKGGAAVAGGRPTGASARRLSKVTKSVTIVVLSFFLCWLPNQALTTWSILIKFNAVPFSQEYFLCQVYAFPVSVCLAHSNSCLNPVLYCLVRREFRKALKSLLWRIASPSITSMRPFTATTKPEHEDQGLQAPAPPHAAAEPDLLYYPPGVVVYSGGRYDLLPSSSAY
Protocol: as §1, §2

human RXFP4 [2] = molecular target: T1, human RXFP4; assay: Receptor activation assay, CRE-controlled NanoLuc reporter; type: cell-based; conditions: HEK293T cells cotransfected with human RXFP4 and CRE-controlled NanoLuc reporter; 1.0 μM forskolin; 37 °C, 4 h; mean ± SE, n = 3; SEM
Protocol: Figure 4 Receptor activation activities of the mature INSL5 and R3/I5 mutants towards RXFP3 and RXFP4. HEK293T cells transiently cotransfected by human RXFP3 or human RXFP4 and a CRE-controlled NanoLuc reporter were used for the activation assays. The measured data were expressed as mean ± SE (n = 3) and fitted to sigmoidal or linear curves using the software SigmaPlot 10.0.
The receptor activation assays of the mature INSL5 and R3/I5 mutants were carried out using a cAMP-response element (CRE)-controlled NanoLuc reporter according to our previous procedure. Briefly, HEK293T cells were transiently cotransfected with the expression construct of human RXFP3 or human RXFP4 and the CRE-controlled NanoLuc reporter vector pNL1.2/CRE. Next day, the transfected cells were trypsinised, seeded into a 96-well plate, and continuously cultured for 24–36 h to ~90% confluence. To start activation assay, the medium was removed and the activation solution (serum-free DMEM medium plus 1% bovine serum albumin) containing 1.0 μM of forskolin and varied concentrations of peptide was added (100 μl/well). After being continuously cultured at 37 °C for 4 h, the activation solution was removed and the cells were lysed by lysis solution (100 μl/well, from Promega). The cell lysate was then transferred to a white opaque 96-well plate (50 μl/well), mixed with the freshly diluted substrate (50 μl/well), and bioluminescence was immediately measured on a SpectraMax M5 plate reader (Molecular Devices) using the luminescence mode. The measured bioluminescence data were expressed as mean ± SE (n = 3) and fitted to sigmoidal or linear curves using the SigmaPlot10.0 software.

Compound: CC[C@H](C)[C@@H]1NC(=O)[C@H](Cc2ccc(O)cc2)NC(=O)[C@H]([C@@H](C)CC)NC(=O)[C@H](C(C)C)NC(=O)[C@H]([C@@H](C)O)NC(=O)[C@H](CCCNC(=N)N)NC(=O)[C@H]([C@@H](C)CC)NC(=O)[C@H](Cc2ccc(O)cc2)NC(=O)[C@H](CCC(=O)O)NC(=O)[C@H](CCCNC(=N)N)NC(=O)CNC(=O)[C@@H](NC(=O)[C@H](CC(C)C)NC(=O)[C@H](CCCNC(=N)N)NC(=O)[C@@H](NC(=O)[C@H](CO)NC(=O)[C@H](CCC(=O)O)NC(=O)[C@@H](N)CCCCN)C(C)C)CSSC[C@@H]2NC(=O)[C@@H](NC(=O)[C@H](CC(C)C)NC(=O)[C@@H](NC(=O)[C@H](CCC(N)=O)NC(=O)[C@H](CC(C)C)NC(=O)[C@H](CC(=O)O)NC(=O)[C@@H](N)CCC(N)=O)[C@@H](C)O)CSSC[C@H](NC(=O)CNC(=O)[C@H](CC(=O)O)NC(=O)[C@H]([C@@H](C)O)NC2=O)C(=O)N[C@@H](CO)C(=O)N[C@@H](CCSC)C(=O)N[C@@H]([C@@H](C)O)C(=O)N[C@@H](CC(=O)O)C(=O)N[C@@H](CC(C)C)C(=O)N[C@@H](CO)C(=O)N[C@@H](C)C(=O)N[C@@H](CC(C)C)C(=O)N[C@H](C(=O)O)CSSC[C@@H](C(=O)NCC(=O)NCC(=O)N[C@@H](CO)C(=O)N[C@@H](CCCNC(=N)N)C(=O)N[C@@H](Cc2c[nH]c3ccccc23)C(=O)O)NC1=O [[L(B9)R,A(B20)G,S(B21)G]INSL5]
- fold lower binding potency towards RXFP4 compared with wild-type INSL5 (human RXFP4 [1]; lower than wild-type INSL5): ~ 6 fold

Compound: [G(B23)A,G(B24)S]R3/I5: recombinant mature two-chain R3/I5 mutant (chain 1 RAAPYGVRLCGREFIRAVIFTCASSRW; chain 2 QDLQTLCCTDGCSMTDLSALC; disulfide (positions not given here); not fully specified; also: A-chain N-terminal pyroglutamate likely)
- pIC50 RXFP3 (human RXFP3): 8.61 ± 0.03
- pIC50 RXFP4 (human RXFP4 [1]): 8.06 ± 0.04

Compound: [R(B12)L,F(B20)Y,G(B23)A,G(B24)S]R3/I5: recombinant mature two-chain R3/I5 mutant (chain 1 RAAPYGVRLCGLEFIRAVIYTCASSRW; chain 2 QDLQTLCCTDGCSMTDLSALC; not fully specified; two-chain, three disulfides; A-chain N-terminal pyroglutamate likely; possible unprinted extra residues as in m2)
- pEC50 RXFP4 (human RXFP4 [2]): 8.71 ± 0.06

More lines, now with the values ahead:

- pIC50 RXFP3 (human RXFP3): 8.45 ± 0.04
- pIC50 RXFP4 (human RXFP4 [1]): 7.91 ± 0.02
- pEC50 RXFP4 (human RXFP4 [2]): 9.02 ± 0.05
Compound: [F(B20)Y,G(B23)A,G(B24)S]R3/I5: recombinant mature two-chain R3/I5 mutant (chain 1 RAAPYGVRLCGREFIRAVIYTCASSRW; chain 2 QDLQTLCCTDGCSMTDLSALC; disulfide (positions not given here); not fully specified; also: A-chain N-terminal pyroglutamate likely)

- pEC50 RXFP4 (human RXFP4 [2]): 8.44 ± 0.04
Compound: [G(B23)A,G(B24)S]R3/I5: recombinant mature two-chain R3/I5 mutant (chain 1 RAAPYGVRLCGREFIRAVIFTCASSRW; chain 2 QDLQTLCCTDGCSMTDLSALC; not fully specified; two-chain, three disulfides; A-chain N-terminal pyroglutamate likely; possible unprinted extra residues as in m2)

- pIC50 RXFP3 (human RXFP3): 8.40 ± 0.04
- pIC50 RXFP4 (human RXFP4 [1]): 7.75 ± 0.05
Compound: [R(B12)L,F(B20)Y,G(B23)A,G(B24)S]R3/I5: recombinant mature two-chain R3/I5 mutant (chain 1 RAAPYGVRLCGLEFIRAVIYTCASSRW; chain 2 QDLQTLCCTDGCSMTDLSALC; disulfide (positions not given here); not fully specified; also: A-chain N-terminal pyroglutamate likely)
